Reference: publication PMC8941942, “Functional and Structural Characterization of Diverse NfsB Chloramphenicol Reductase Enzymes from Human Pathogens” (Microbiology Spectrum, 2022)

Experiments:
Ng FA1090 NfsB = molecular target: T1, Ng FA1090 NfsB (Neisseria gonorrhoeae, UniProt Q5F9K5); type: cell-based; details: 100 µg/mL chloramphenicol, MDG medium, 37°C; compared with empty vector
T1 construct: gene NGO_0388

[1] = test system: NC(=O)C1=CN([C@@H]2O[C@H](COP(=O)(O)OP(=O)(O)OC[C@H]3O[C@@H](n4cnc5c(N)ncnc54)[C@H](OP(=O)(O)O)[C@@H]3O)[C@@H](O)[C@H]2O)C=CC1; test: purified protein; details: apparent, 1 mM chloramphenicol, 1 µM FMN, 50 mM Tris pH 8, ~23°C
[2] = test system: O=C(N[C@H](CO)[C@H](O)c1ccc([N+](=O)[O-])cc1)C(Cl)Cl; test: purified protein; details: apparent, 1 mM NADPH, 1 µM FMN, 50 mM Tris pH 8, ~23°C

T1 sequence (Q5F9K5 1-221): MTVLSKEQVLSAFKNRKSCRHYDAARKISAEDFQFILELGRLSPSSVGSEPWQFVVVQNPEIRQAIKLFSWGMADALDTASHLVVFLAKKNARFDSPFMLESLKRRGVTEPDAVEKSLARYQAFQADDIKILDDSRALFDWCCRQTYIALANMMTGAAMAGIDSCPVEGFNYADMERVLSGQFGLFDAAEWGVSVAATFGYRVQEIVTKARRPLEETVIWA

| Compound | Bratton-Marshall assay of resting E. coli expressing nfsB (Ng FA1090 NfsB) | Km [1] [µM] | kcat [1] [s⁻¹] | kcat/Km [1] [M⁻¹ s⁻¹] | Km [2] | kcat [2] [s⁻¹] | kcat/Km [2] [M⁻¹ s⁻¹] |
| --- | --- | --- | --- | --- | --- | --- | --- |
| O=C(N[C@H](CO)[C@H](O)c1ccc([N+](=O)[O-])cc1)C(Cl)Cl [chloramphenicol] | Es. coli strains expressing H. influenzae or Neisseria nfsB genes showed robust signal | – | – | – | – | – | – |
| Hi 86-028NP NfsB (Haemophilus influenzae 86-028NP) | – | 21 ± 2 | 9.9 ± 0.6 | 478000 | 200 ± 40 µM | 8.7 ± 0.9 | 44500 |
| Hi KW20 NfsB (Haemophilus influenzae Rd KW20) | – | 49 ± 6 | 13 ± 0.5 | 278000 | 260 ± 20 µM | 14 ± 0.3 | 55500 |
| Nm Z2491 NfsB (Neisseria meningitidis Z2491) | – | 22 ± 4 | 8.2 ± 0.3 | 388000 | 1,300 ± 800 μM | 8.9 ± 3 | 8120 |
